Measurements as given in US11649460B2, “DNA aptamers, method for inhibiting human galectin-1 and method of treating a mammal in need thereof” (priority 2020, dated 2023).

Tests used:
[1] = system: NHF human foreskin skin fibroblasts; test: in vitro
Text: (§1) The XLSTAT software was used to determine the IC50, TGI and LC50 values using the four-parameter logistic curve equation.

[2] = system: MCF-7 human breast adenocarcinoma cell line; test: SRB cell proliferation (cytotoxicity) assay, MCF-7
Text: as §1

[3] = biological target: T1, native human galectin-1 (hGal1) (Homo sapiens, UniProt P09382); test: Thermofluor thermal shift assay (TSA), native galectin-1; format: binding; conditions: 5 μM protein
T1 construct: 42; made in house; host or cells: E. coli strain M-15
T1 sequence (P09382 2-135): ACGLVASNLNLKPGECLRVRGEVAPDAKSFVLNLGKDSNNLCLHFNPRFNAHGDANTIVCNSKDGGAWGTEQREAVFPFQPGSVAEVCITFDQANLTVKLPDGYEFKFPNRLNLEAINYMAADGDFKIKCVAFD
Method: In an attempt to screen among the selected aptamers that better interact with hGal1, differential scanning fluorimetry (Termofluor) was used to characterize their binding to its target. Among all the selected aptamers, SEQ ID NO.: 4 seemed to have a more intense effect on hGal1 thermoshift and so was chosen for further analysis. The selected aptamer had its interaction evaluated with native and alkylated galectin-1. […] The respective thermal displacements were evaluated as a function of an increasing concentration of SEQ ID NO.: 4 (FIG. 1).
Thermofluor experiments were performed on an Mx3005 RT-PCR (Agilent Technologies) using the SYPRO® Orange dye (492/610 nm) (Invitrogen) as fluorescent probe. The purified (native and alkylated) protein samples were incubated for 30 min with increasing concentration of the molecules of interest, centrifuged, and submitted to the thermal denaturation assay, totalizing four distinct experiments. In a 96-well plate (Agilent Technologies) 20 μl of the reaction containing 5 μM of each protein in buffer PBS 1× and 5× SYPRO® Orange were heated from 25° C. to 95° C. at a rate of 1° C./min. The experimental result was processed as in the protocol previously described and the melting temperature was obtained using GraphPad Prism software (www.graphpad.com).

[4] = system: OVCAR-3 human ovarian adenocarcinoma cell line; test: SRB cell proliferation (cytotoxicity) assay, OVCAR-3
Text: as §1

[5] = biological target: T2, alkylated Gal1 (Homo sapiens, UniProt P09382); test: Hemagglutination inhibition assay, alkylated Gal1; format: cell-based; conditions: alkylated Gal1 5 μM
T2 construct: 42; made in house; host or cells: E. coli strain M-15
T2 sequence (P09382 2-135): as above
Method: FIG. 15 illustrates the hemagglutination test with constant protein concentration at 5 μM and titration of aptamers SEQ ID NO.: 4 and SEQ ID NO.: 9. (a) Titration with aptamer 4. The hemagglutination of native Gal1 was inhibited from the concentration of 10 μM of this compound.
(§2) Hemagglutination assay was adopted to assess the capacity of SEQ ID NO.: 4 in inhibiting the lectin cross-linking aggregation of red blood cells (RBC), as previously described. Briefly, using a 96-well microplates appropriate amounts of 5 μM hGal1 were blended with 50 μL of aptamer in an increasing concentrations manner (0-40 μM) in PBS 1× buffer (pH 7.4). Following, 50 μL of 3% purified type B+ RBC in PBS. After 2 h of room temperature incubation, the plate was photographed and the hemagglutination area was estimated by area calculator Sketchandcalc™ and the results were expressed as relative agglutination.
It was observed that treating hGal-1 with Iodoacetamide, which covalently binds the acetamide group in all solvent accessible cysteines sulfhydryl side chain, abolishes the anti-hemagglutinating activity of the aptamer. According to the proposed binding mode, this happens because Cysteines 2, 88 and 130 interact directly with the aptamer and adding the acetamide group to their side chains would disrupt specific aptamer-protein interactions (FIG. 13C).

[6] = biological target: T3, hGal1-induced hemagglutination of red blood cells (Homo sapiens, UniProt P09382); test: Hemagglutination inhibition assay, native hGal1; format: cell-based; conditions: native Gal1 5 μM
T3 construct: 42; made in house; host or cells: E. coli strain M-15
T3 sequence (P09382 2-135): as above
Method: Hemagglutination Inhibition Assay
as §2

[7] = system: A-375 human malignant melanoma; test: SRB cell proliferation (cytotoxicity) assay, A-375
Text: as §1

[8] = system: HCT 116 human colorectal carcinoma; test: SRB cell proliferation (cytotoxicity) assay, HCT 116
Text: as §1

[9] = system: HT-29 human colorectal adenocarcinoma; test: SRB cell proliferation (cytotoxicity) assay, HT-29
Text: as §1

[10] = system: DU-145 human prostate carcinoma cell line; test: SRB cell proliferation (cytotoxicity) assay, DU-145
Text: as §1

[11] = system: SK-BR-3 human breast adenocarcinoma; test: SRB cell proliferation (cytotoxicity) assay, SK-BR-3
Text: as §1

B1: AGCTGACACAGCAGGTTGGTGCCCAAAAGAGCCAATCCACGACGACACCCCAAAAACCATATCACGAATACCCGAGTCGAGCAATCTCGAAAT (nucleic acid)
DNA: AGCTGACACAGCAGGTTGGTGCCCAAAAGAGCCAATCCACGACGACACCCCAAAAACCATATCACGAATACCCGAGTCGAGCAATCTCGAAAT
modifications: chemistry not given here
[1]; 0.781 µM
  Relative viability (%) of test items: 104.0%
[1]; 1.562 µM
  Relative viability (%) of test items: 96.2%
[1]; 3.125 µM
  Relative viability (%) of test items: 95.7%
[1]; 6.25 µM
  Relative viability (%) of test items: 92.7%
[1]; 12.5 µM
  Relative viability (%) of test items: 114.0%
[1]; 25 µM
  Relative viability (%) of test items: 84.6%
[1]; 50 µM
  Relative viability (%) of test items: 44.6%
[1]; 100 µM
  Relative viability (%) of test items: −12.8%
[1]; NHF
  TGI: Concentration for total inhibition of cell growth: 83.697 µM
[1]; read-out: IC50: Concentration to inhibit 50% of cell growth, NHF
  IC50: 46.9 µM
[2]; 0.781 µM
  Relative viability (%) of test items: 103.8%
[2]; 1.562 µM
  Relative viability (%) of test items: 95.5%
[2]; 3.125 µM
  Relative viability (%) of test items: 97.8%
[2]; 6.25 µM
  Relative viability (%) of test items: 84.8%
[2]; 12.5 µM
  Relative viability (%) of test items: 73.6%
[2]; 25 µM
  Relative viability (%) of test items: 55.1%
[2]; 50 µM
  Relative viability (%) of test items: 37.5%
[2]; 100 µM
  Relative viability (%) of test items: −19.5%
[2]; MCF-7
  TGI: Concentration for total inhibition of cell growth: 80.767 µM
[2]; read-out: IC50: Concentration to inhibit 50% of cell growth, MCF-7
  IC50: 32 µM
[2]; read-out: LC50: Concentration for 50% cell death, MCF-7
  CC50: > 100 µM
[3]
  variation of denaturation temperature (Tm) of native hGal1: greater variation
[4]; 0.781 µM
  Relative viability (%) of test items: 105.9%
[4]; 1.562 µM
  Relative viability (%) of test items: 99.6%
[4]; 3.125 µM
  Relative viability (%) of test items: 93.9%
[4]; 6.25 µM
  Relative viability (%) of test items: 84.3%
[4]; 12.5 µM
  Relative viability (%) of test items: 50.2%
[4]; 25 µM
  Relative viability (%) of test items: 23.4%
[4]; 50 µM
  Relative viability (%) of test items: 8.1%
[4]; 100 µM
  Relative viability (%) of test items: −62.0%
[4]; OVCAR-3
  TGI: Concentration for total inhibition of cell growth: 45.952 µM
[4]; read-out: IC50: Concentration to inhibit 50% of cell growth, OVCAR-3
  IC50: 16.1 µM
[4]; read-out: LC50: Concentration for 50% cell death, OVCAR-3
  CC50: 91.4 µM
[5]
  effect on hemagglutination by alkylated Gal1: no effect
[6]
  concentration from which hemagglutination was inhibited: 10 µM
  inhibitory effect on galectin-induced hemagglutination: better effect
[7]; 0.781 µM
  Relative cell viability (%) of test items: 121.2%
[7]; 1.562 µM
  Relative cell viability (%) of test items: 107.1%
[7]; 3.125 µM
  Relative cell viability (%) of test items: 107.0%
[7]; 6.25 µM
  Relative cell viability (%) of test items: 114.0%
[7]; 12.5 µM
  Relative cell viability (%) of test items: 97.7%
[7]; 25 µM
  Relative cell viability (%) of test items: 92.5%
[7]; 50 µM
  Relative cell viability (%) of test items: 70.6%
[7]; 100 µM
  Relative cell viability (%) of test items: −19.4%
[7]; A-375
  TGI: Concentration for total inhibition of cell growth: 90.397 µM
[7]; read-out: IC50: Concentration to inhibit 50% of cell growth, A-375
  IC50: 61.1 µM
[7]; read-out: LC50: Concentration for 50% cell death, A-375
  CC50: > 100 µM
[8]; 0.781 µM
  Relative cell viability (%) of test items: 99.9%
[8]; 1.562 µM
  Relative cell viability (%) of test items: 94.6%
[8]; 3.125 µM
  Relative cell viability (%) of test items: 87.9%
[8]; 6.25 µM
  Relative cell viability (%) of test items: 88.9%
[8]; 12.5 µM
  Relative cell viability (%) of test items: 72.2%
[8]; 25 µM
  Relative cell viability (%) of test items: 33.3%
[8]; 50 µM
  Relative cell viability (%) of test items: 11.5%
[8]; 100 µM
  Relative cell viability (%) of test items: −19.5%
[8]; HCT 116
  TGI: Concentration for total inhibition of cell growth: 58.519 µM
[8]; read-out: IC50: Concentration to inhibit 50% of cell growth, HCT 116
  IC50: 20.1 µM
[9]; 0.781 µM
  Relative cell viability (%) of test items: 92.0%
[9]; 1.562 µM
  Relative cell viability (%) of test items: 95.9%
[9]; 3.125 µM
  Relative cell viability (%) of test items: 97.2%
[9]; 6.25 µM
  Relative cell viability (%) of test items: 92.5%
[9]; 12.5 µM
  Relative cell viability (%) of test items: 83.1%
[9]; 25 µM
  Relative cell viability (%) of test items: 32.7%
[9]; 50 µM
  Relative cell viability (%) of test items: 14.4%
[9]; 100 µM
  Relative cell viability (%) of test items: 0.2%
[9]; read-out: IC50: Concentration to inhibit 50% of cell growth, HT-29
  IC50: 20.4 µM
[10]; 0.781 µM
  Relative viability (%) of test items: 106.1%
[10]; 1.562 µM
  Relative viability (%) of test items: 92.3%
[10]; 3.125 µM
  Relative viability (%) of test items: 106.4%
[10]; 6.25 µM
  Relative viability (%) of test items: 103.6%
[10]; 12.5 µM
  Relative viability (%) of test items: 98.7%
[10]; 25 µM
  Relative viability (%) of test items: 82.5%
[10]; 50 µM
  Relative viability (%) of test items: 68.0%
[10]; 100 µM
  Relative viability (%) of test items: 36.6%
[10]; DU-145
  TGI: Concentration for total inhibition of cell growth: >100 µM
[10]; read-out: IC50: Concentration to inhibit 50% of cell growth, DU-145
  IC50: 74 µM
[11]; 0.781 µM
  Relative cell viability (%) of test items: 107.5%
[11]; 1.562 µM
  Relative cell viability (%) of test items: 99.9%
[11]; 3.125 µM
  Relative cell viability (%) of test items: 111.1%
[11]; 6.25 µM
  Relative cell viability (%) of test items: 109.1%
[11]; 12.5 µM
  Relative cell viability (%) of test items: 98.5%
[11]; 25 µM
  Relative cell viability (%) of test items: 48.7%
[11]; 50 µM
  Relative cell viability (%) of test items: 3.1%
[11]; 100 µM
  Relative cell viability (%) of test items: −70.0%
[11]; SK-BR-3
  TGI: Concentration for total inhibition of cell growth: 49.017 µM
[11]; read-out: IC50: Concentration to inhibit 50% of cell growth, SK-BR-3
  IC50: 28.3 µM
[11]; read-out: LC50: Concentration for 50% cell death, SK-BR-3
  CC50: 80.7 µM
